Patent publication US20050106160A1
Values joined by “and” are separate entries in the source; they are usually repeats but may differ in a detail not shown here. Equal values may be shown once. Read-outs that look alike come from different tables or passages of the source.

Legend:
[1] = molecular target: cell surface associated CCR5 (CF2Th-CCR5 cells) (UniProt P51681)
[2] = molecular target: cell surface associated CCR5 (CF2Th-CCR5 cells) (UniProt P51681); assay: flow cytometry on CF2Th-CCR5 cells, anti-CCR5 mAb 5C7, no ligand, background subtracted
[3] = molecular target: cell surface associated CCR5 (CF2Th-CCR5 cells) (UniProt P51681); assay: flow cytometry on CF2Th-CCR5 cells, anti-CCR5 mAb 5C7, cells preincubated with gp140 + sCD4
[4] = molecular target: cell surface associated CCR5 (CF2Th-CCR5 cells) (UniProt P51681); assay: flow cytometry on CF2Th-CCR5 cells, anti-CCR5 mAb 5C7, cells preincubated with sCD4 (1 µg/ml)

Sequence of UniProt P51681 (P51681 whole entry): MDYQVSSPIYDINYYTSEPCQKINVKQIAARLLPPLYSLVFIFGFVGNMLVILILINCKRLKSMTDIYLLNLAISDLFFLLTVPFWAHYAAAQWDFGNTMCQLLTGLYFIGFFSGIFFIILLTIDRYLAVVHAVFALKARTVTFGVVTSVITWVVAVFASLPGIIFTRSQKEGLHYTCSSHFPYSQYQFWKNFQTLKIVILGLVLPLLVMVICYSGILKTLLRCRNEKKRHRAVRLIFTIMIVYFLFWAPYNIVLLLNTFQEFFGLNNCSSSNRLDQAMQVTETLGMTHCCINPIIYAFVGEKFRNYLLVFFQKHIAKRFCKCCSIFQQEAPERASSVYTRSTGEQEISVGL

| Substance | geometric mean of fluorescence intensity (arbitrary units) [1] | geometric mean of fluorescence intensity (arbitrary units) [2] | geometric mean of fluorescence intensity (arbitrary units) [3] | geometric mean of fluorescence intensity (arbitrary units) [4] |
| --- | --- | --- | --- | --- |
| anti-CCR5 mAb 5C7 (antibody) | 1200 and 1100 | 1100 | 370 | 1300 |
| two-domain soluble CD4 (sCD4) (from UniProt P01730 26-208) (receptor) | 20 | – | – | – |
